T1: alpha-s1 casein from Bos taurus
T1 chain: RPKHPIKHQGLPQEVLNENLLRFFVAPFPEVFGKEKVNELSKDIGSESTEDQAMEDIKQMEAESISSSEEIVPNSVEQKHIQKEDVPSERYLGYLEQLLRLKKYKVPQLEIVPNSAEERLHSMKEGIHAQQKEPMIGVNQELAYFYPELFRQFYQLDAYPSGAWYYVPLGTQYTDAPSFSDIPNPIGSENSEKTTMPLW


Molecular target: T1, alpha-s1 casein from Bos taurus

Protein | (αSN1-1)/(αSN1), 6 hours, 11° C. | (αSN1-1)/(αSN1), 24 hours, 11° C. | αs1-I CN, 6 hours, 11° C. [Volume] | αs1-I CN, 24 hours, 11° C. [Volume] | αs1 CN, 6 hours, 11° C. [Volume] | αs1 CN, 24 hours, 11° C. [Volume] | hydrolysis of the first cut in alpha-s1-casein | small, 6 hours, 11° C. [Volume] | small, 24 hours, 11° C. [Volume] | αs1-I CN/αs1 CN, 6 hours, 11° C.
camel chymosin variant #162 (L295R) (protein) GKVAREPLTSYLDSQYFGKIYIGTPPQEFTVVFDTGSSDLWVPSIYCKSNVCKNHHRFDPRKSSTFRNLGKPLSIHYGTGSMEGFLGYDTVTVSNIVDPNQTVGLSTEQPGEVFTYSEFDGILGLAYPSLASEYSVPVFDNMMDRHLVARDLFSVYMDRNGQGSMLTLGAIDPSYYTGSLHWVPVTLQQYWQFTVDSVTINGVAVACVGGCQAILDTGTSVLFGPSSDILKIQMAIGATENRYGEFDVNCGNLRSMPTVVFEINGRDYPLSPSAYTSKDQGFCTSGFQGDNNSERWILGDVFIREYYSVFDRANNRVGLAKAI | 0.5 | 1.9 | 1.65e+07 | 3.1e+07 | 3.09e+07 | 1.67e+07 | – | – | – | –
camel chymosin variant #163 (L295T) (protein) GKVAREPLTSYLDSQYFGKIYIGTPPQEFTVVFDTGSSDLWVPSIYCKSNVCKNHHRFDPRKSSTFRNLGKPLSIHYGTGSMEGFLGYDTVTVSNIVDPNQTVGLSTEQPGEVFTYSEFDGILGLAYPSLASEYSVPVFDNMMDRHLVARDLFSVYMDRNGQGSMLTLGAIDPSYYTGSLHWVPVTLQQYWQFTVDSVTINGVAVACVGGCQAILDTGTSVLFGPSSDILKIQMAIGATENRYGEFDVNCGNLRSMPTVVFEINGRDYPLSPSAYTSKDQGFCTSGFQGDNNSETWILGDVFIREYYSVFDRANNRVGLAKAI | 0.5 | 1.6 | 1.48e+07 | 1.79e+07 | 2.79e+07 | 1.14e+07 | – | – | – | –
camel chymosin variant #164 (L295Y) (protein) GKVAREPLTSYLDSQYFGKIYIGTPPQEFTVVFDTGSSDLWVPSIYCKSNVCKNHHRFDPRKSSTFRNLGKPLSIHYGTGSMEGFLGYDTVTVSNIVDPNQTVGLSTEQPGEVFTYSEFDGILGLAYPSLASEYSVPVFDNMMDRHLVARDLFSVYMDRNGQGSMLTLGAIDPSYYTGSLHWVPVTLQQYWQFTVDSVTINGVAVACVGGCQAILDTGTSVLFGPSSDILKIQMAIGATENRYGEFDVNCGNLRSMPTVVFEINGRDYPLSPSAYTSKDQGFCTSGFQGDNNSEYWILGDVFIREYYSVFDRANNRVGLAKAI | 0.6 | 1.8 | 1.59e+07 | 2.66e+07 | 2.49e+07 | 1.49e+07 | – | – | – | –
camel chymosin variant #165 (L295W) (protein) GKVAREPLTSYLDSQYFGKIYIGTPPQEFTVVFDTGSSDLWVPSIYCKSNVCKNHHRFDPRKSSTFRNLGKPLSIHYGTGSMEGFLGYDTVTVSNIVDPNQTVGLSTEQPGEVFTYSEFDGILGLAYPSLASEYSVPVFDNMMDRHLVARDLFSVYMDRNGQGSMLTLGAIDPSYYTGSLHWVPVTLQQYWQFTVDSVTINGVAVACVGGCQAILDTGTSVLFGPSSDILKIQMAIGATENRYGEFDVNCGNLRSMPTVVFEINGRDYPLSPSAYTSKDQGFCTSGFQGDNNSEWWILGDVFIREYYSVFDRANNRVGLAKAI | 1.5 | 6.7 | 3.09e+07 | 3.78e+07 | 2.12e+07 | 5.7e+06 | – | – | – | –
bovine chymosin B variant #6 (K221M) (protein) GEVASVPLTNYLDSQYFGKIYLGTPPQEFTVLFDTGSSDFWVPSIYCKSNACKNHQRFDPRKSSTFQNLGKPLSIHYGTGSMQGILGYDTVTVSNIVDIQQTVGLSTQEPGDVFTYAEFDGILGMAYPSLASEYSIPVFDNMMNRHLVAQDLFSVYMDRNGQESMLTLGAIDPSYYTGSLHWVPVTVQQYWQFTVDSVTISGVVVACEGGCQAILDTGTSMLVGPSSDILNIQQAIGATQNQYGEFDIDCDNLSYMPTVVFEINGKMYPLTPSAYTSQDQGFCTSGFQSENHSQKWILGDVFIREYYSVFDRANNLVGLAKAI | – | – | 1.89e+07 | 2.22e+07 | 1.81e+07 | 5.1e+06 | show a clear hydrolysis of the first cut in alpha-s1-casein, leading to a rapid formation of fragment alpha-s1-I casein | 0 | 4.3e+06 | 1
camel chymosin variant #166 (I297T) (protein) GKVAREPLTSYLDSQYFGKIYIGTPPQEFTVVFDTGSSDLWVPSIYCKSNVCKNHHRFDPRKSSTFRNLGKPLSIHYGTGSMEGFLGYDTVTVSNIVDPNQTVGLSTEQPGEVFTYSEFDGILGLAYPSLASEYSVPVFDNMMDRHLVARDLFSVYMDRNGQGSMLTLGAIDPSYYTGSLHWVPVTLQQYWQFTVDSVTINGVAVACVGGCQAILDTGTSVLFGPSSDILKIQMAIGATENRYGEFDVNCGNLRSMPTVVFEINGRDYPLSPSAYTSKDQGFCTSGFQGDNNSELWTLGDVFIREYYSVFDRANNRVGLAKAI | 0.9 | 3.1 | 1.8e+07 | 1.33e+07 | 2.1e+07 | 4.2e+06 | – | – | – | –
camel chymosin variant #167 (I297V) (protein) GKVAREPLTSYLDSQYFGKIYIGTPPQEFTVVFDTGSSDLWVPSIYCKSNVCKNHHRFDPRKSSTFRNLGKPLSIHYGTGSMEGFLGYDTVTVSNIVDPNQTVGLSTEQPGEVFTYSEFDGILGLAYPSLASEYSVPVFDNMMDRHLVARDLFSVYMDRNGQGSMLTLGAIDPSYYTGSLHWVPVTLQQYWQFTVDSVTINGVAVACVGGCQAILDTGTSVLFGPSSDILKIQMAIGATENRYGEFDVNCGNLRSMPTVVFEINGRDYPLSPSAYTSKDQGFCTSGFQGDNNSELWVLGDVFIREYYSVFDRANNRVGLAKAI | 0.7 | 2.9 | 2.02e+07 | 2.29e+07 | 2.73e+07 | 8e+06 | – | – | – | –
bovine chymosin B variant #7 (K221V) (protein) GEVASVPLTNYLDSQYFGKIYLGTPPQEFTVLFDTGSSDFWVPSIYCKSNACKNHQRFDPRKSSTFQNLGKPLSIHYGTGSMQGILGYDTVTVSNIVDIQQTVGLSTQEPGDVFTYAEFDGILGMAYPSLASEYSIPVFDNMMNRHLVAQDLFSVYMDRNGQESMLTLGAIDPSYYTGSLHWVPVTVQQYWQFTVDSVTISGVVVACEGGCQAILDTGTSVLVGPSSDILNIQQAIGATQNQYGEFDIDCDNLSYMPTVVFEINGKMYPLTPSAYTSQDQGFCTSGFQSENHSQKWILGDVFIREYYSVFDRANNLVGLAKAI | – | – | 2.28e+07 | 1.82e+07 | 1.07e+07 | 2.8e+06 | show a clear hydrolysis of the first cut in alpha-s1-casein, leading to a rapid formation of fragment alpha-s1-I casein | 0 | 1.05e+07 | 2.1
bovine chymosin B variant #71 (A51V, K221V) (protein) GEVASVPLTNYLDSQYFGKIYLGTPPQEFTVLFDTGSSDFWVPSIYCKSNVCKNHQRFDPRKSSTFQNLGKPLSIHYGTGSMQGILGYDTVTVSNIVDIQQTVGLSTQEPGDVFTYAEFDGILGMAYPSLASEYSIPVFDNMMNRHLVAQDLFSVYMDRNGQESMLTLGAIDPSYYTGSLHWVPVTVQQYWQFTVDSVTISGVVVACEGGCQAILDTGTSVLVGPSSDILNIQQAIGATQNQYGEFDIDCDNLSYMPTVVFEINGKMYPLTPSAYTSQDQGFCTSGFQSENHSQKWILGDVFIREYYSVFDRANNLVGLAKAI | – | – | 2.54e+07 | 2.46e+07 | 8.8e+06 | 2.5e+06 | show a clear hydrolysis of the first cut in alpha-s1-casein, leading to a rapid formation of fragment alpha-s1-I casein | 0 | 0 | 2.9
bovine chymosin B variant #74 (A51V, K221M) (protein) GEVASVPLTNYLDSQYFGKIYLGTPPQEFTVLFDTGSSDFWVPSIYCKSNVCKNHQRFDPRKSSTFQNLGKPLSIHYGTGSMQGILGYDTVTVSNIVDIQQTVGLSTQEPGDVFTYAEFDGILGMAYPSLASEYSIPVFDNMMNRHLVAQDLFSVYMDRNGQESMLTLGAIDPSYYTGSLHWVPVTVQQYWQFTVDSVTISGVVVACEGGCQAILDTGTSMLVGPSSDILNIQQAIGATQNQYGEFDIDCDNLSYMPTVVFEINGKMYPLTPSAYTSQDQGFCTSGFQSENHSQKWILGDVFIREYYSVFDRANNLVGLAKAI | – | – | 1.98e+07 | 2.47e+07 | 2.09e+07 | 6.3e+06 | show a clear hydrolysis of the first cut in alpha-s1-casein, leading to a rapid formation of fragment alpha-s1-I casein | 0 | 0 | 0.9
bovine chymosin B variant #98 (A51V, K221V, S135T, A126G, S273Y, Q240E) (protein) GEVASVPLTNYLDSQYFGKIYLGTPPQEFTVLFDTGSSDFWVPSIYCKSNVCKNHQRFDPRKSSTFQNLGKPLSIHYGTGSMQGILGYDTVTVSNIVDIQQTVGLSTQEPGDVFTYAEFDGILGMGYPSLASEYTIPVFDNMMNRHLVAQDLFSVYMDRNGQESMLTLGAIDPSYYTGSLHWVPVTVQQYWQFTVDSVTISGVVVACEGGCQAILDTGTSVLVGPSSDILNIQQAIGATENQYGEFDIDCDNLSYMPTVVFEINGKMYPLTPYAYTSQDQGFCTSGFQSENHSQKWILGDVFIREYYSVFDRANNLVGLAKAI | – | – | – | – | – | – | show a clear hydrolysis of the first cut in alpha-s1-casein, leading to a rapid formation of fragment alpha-s1-I casein | – | – | –

Same assay, conditions: not given

Protein | αs1-I CN/αs1 CN, 24 hours, 11° C. | small, 16 hours, 30° C. [Volume] | αs1-I CN, 16 hours, 30° C. [Volume] | αs1 CN, 16 hours, 30° C. [Volume]
bovine chymosin B variant #6 (K221M) (protein) GEVASVPLTNYLDSQYFGKIYLGTPPQEFTVLFDTGSSDFWVPSIYCKSNACKNHQRFDPRKSSTFQNLGKPLSIHYGTGSMQGILGYDTVTVSNIVDIQQTVGLSTQEPGDVFTYAEFDGILGMAYPSLASEYSIPVFDNMMNRHLVAQDLFSVYMDRNGQESMLTLGAIDPSYYTGSLHWVPVTVQQYWQFTVDSVTISGVVVACEGGCQAILDTGTSMLVGPSSDILNIQQAIGATQNQYGEFDIDCDNLSYMPTVVFEINGKMYPLTPSAYTSQDQGFCTSGFQSENHSQKWILGDVFIREYYSVFDRANNLVGLAKAI | 4.3 | – | – | –
bovine chymosin B variant #7 (K221V) (protein) GEVASVPLTNYLDSQYFGKIYLGTPPQEFTVLFDTGSSDFWVPSIYCKSNACKNHQRFDPRKSSTFQNLGKPLSIHYGTGSMQGILGYDTVTVSNIVDIQQTVGLSTQEPGDVFTYAEFDGILGMAYPSLASEYSIPVFDNMMNRHLVAQDLFSVYMDRNGQESMLTLGAIDPSYYTGSLHWVPVTVQQYWQFTVDSVTISGVVVACEGGCQAILDTGTSVLVGPSSDILNIQQAIGATQNQYGEFDIDCDNLSYMPTVVFEINGKMYPLTPSAYTSQDQGFCTSGFQSENHSQKWILGDVFIREYYSVFDRANNLVGLAKAI | 6.4 | – | – | –
bovine chymosin B variant #71 (A51V, K221V) (protein) GEVASVPLTNYLDSQYFGKIYLGTPPQEFTVLFDTGSSDFWVPSIYCKSNVCKNHQRFDPRKSSTFQNLGKPLSIHYGTGSMQGILGYDTVTVSNIVDIQQTVGLSTQEPGDVFTYAEFDGILGMAYPSLASEYSIPVFDNMMNRHLVAQDLFSVYMDRNGQESMLTLGAIDPSYYTGSLHWVPVTVQQYWQFTVDSVTISGVVVACEGGCQAILDTGTSVLVGPSSDILNIQQAIGATQNQYGEFDIDCDNLSYMPTVVFEINGKMYPLTPSAYTSQDQGFCTSGFQSENHSQKWILGDVFIREYYSVFDRANNLVGLAKAI | 9.8 | 2.4e+06 | 1.97e+07 | 1.6e+06
bovine chymosin B variant #74 (A51V, K221M) (protein) GEVASVPLTNYLDSQYFGKIYLGTPPQEFTVLFDTGSSDFWVPSIYCKSNVCKNHQRFDPRKSSTFQNLGKPLSIHYGTGSMQGILGYDTVTVSNIVDIQQTVGLSTQEPGDVFTYAEFDGILGMAYPSLASEYSIPVFDNMMNRHLVAQDLFSVYMDRNGQESMLTLGAIDPSYYTGSLHWVPVTVQQYWQFTVDSVTISGVVVACEGGCQAILDTGTSMLVGPSSDILNIQQAIGATQNQYGEFDIDCDNLSYMPTVVFEINGKMYPLTPSAYTSQDQGFCTSGFQSENHSQKWILGDVFIREYYSVFDRANNLVGLAKAI | 3.9 | 5.1e+06 | 1.86e+07 | 1.8e+06
bovine chymosin B variant #98 (A51V, K221V, S135T, A126G, S273Y, Q240E) (protein) GEVASVPLTNYLDSQYFGKIYLGTPPQEFTVLFDTGSSDFWVPSIYCKSNVCKNHQRFDPRKSSTFQNLGKPLSIHYGTGSMQGILGYDTVTVSNIVDIQQTVGLSTQEPGDVFTYAEFDGILGMGYPSLASEYTIPVFDNMMNRHLVAQDLFSVYMDRNGQESMLTLGAIDPSYYTGSLHWVPVTVQQYWQFTVDSVTISGVVVACEGGCQAILDTGTSVLVGPSSDILNIQQAIGATENQYGEFDIDCDNLSYMPTVVFEINGKMYPLTPYAYTSQDQGFCTSGFQSENHSQKWILGDVFIREYYSVFDRANNLVGLAKAI | – | 1.4e+06 | 1.96e+07 | 1.5e+06
